Values of other authors, collected in paper PMC7225939.
pKd: −log10 of the molar value. Read-outs that look alike come from different tables or passages of the source.

What was measured:
PCNA (Homo sapiens) = PCNA (Homo sapiens) (UniProt P12004); test: ITC
RecQ5 (Homo sapiens) = test: NMR
pol η (Homo sapiens) = test: SPR
pol ι (Homo sapiens) = test: SPR
p68 (Homo sapiens) = test: ITC
PARG (Homo sapiens) = test: ITC
UHRF2 (Homo sapiens) = test: ITC
DVC1 (Homo sapiens) = test: ITC
p21 (Homo sapiens) = test: ITC
Chain of p21 (Homo sapiens) (P38936 139-160): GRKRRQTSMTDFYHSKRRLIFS

ZRANB3 (Homo sapiens) [1] = test: ITC
Target sequence in this assay (Q5FWF4 511-532): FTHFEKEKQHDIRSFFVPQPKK

p15PAF (Homo sapiens) = test: ITC
Chain of p15PAF (Homo sapiens) (Q15004 50-77): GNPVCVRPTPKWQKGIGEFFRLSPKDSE

TRAIP (Homo sapiens) = test: ITC
Chain of TRAIP (Homo sapiens) (Q9BWF2 447-469): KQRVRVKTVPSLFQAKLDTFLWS

DNMT1 (Homo sapiens) = test: ITC
Chain of DNMT1 (Homo sapiens) (P26358 161-180): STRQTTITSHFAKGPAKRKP

[2] = molecular target: p15 (PAF15) (Homo sapiens) (UniProt Q15004); test: ITC
Chain of p15 (PAF15) (Homo sapiens) (Q15004 whole entry): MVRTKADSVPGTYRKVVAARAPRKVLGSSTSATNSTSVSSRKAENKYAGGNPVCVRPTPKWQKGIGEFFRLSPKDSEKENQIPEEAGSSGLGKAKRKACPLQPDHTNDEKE

FEN1 (Homo sapiens) = test: ITC
p12 (Homo sapiens) = test: ITC
ZRANB3 (Homo sapiens) [3] = test: ITC; remark: listed apart in the source
Target sequence in this assay (Q5FWF4 1058-1079): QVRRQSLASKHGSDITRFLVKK

Cdt2 (Homo sapiens) = test: FP
Cdt1 (Homo sapiens) = test: FP

Chain of PCNA (P12004 whole entry): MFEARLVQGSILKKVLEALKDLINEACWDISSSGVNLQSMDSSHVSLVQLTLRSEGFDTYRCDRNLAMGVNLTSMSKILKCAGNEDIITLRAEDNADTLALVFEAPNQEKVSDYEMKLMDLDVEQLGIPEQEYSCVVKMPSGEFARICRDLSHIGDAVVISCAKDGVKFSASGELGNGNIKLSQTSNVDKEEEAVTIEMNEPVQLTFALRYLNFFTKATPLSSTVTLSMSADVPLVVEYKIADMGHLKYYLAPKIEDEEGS
Chain of PCNA (Homo sapiens) (P12004 whole entry): as above
Chain of RecQ5 (Homo sapiens) (O94762 952-980): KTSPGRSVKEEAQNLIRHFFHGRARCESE
Chain of pol η (Homo sapiens) (Q9Y253 other isoform, or with tags, fused parts or gaps): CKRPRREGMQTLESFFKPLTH
Chain of p15PAF (from UniProt Q15004) (Q15004 whole entry): as the sequence (Q15004 whole entry) above

With p15PAF as the substance, how does the pKd (PCNA (Homo sapiens)) read?
The pKd was 5.25.

With p68 (DNA polymerase delta subunit) as the substance, how does the pKd (PCNA (Homo sapiens)) read?
Its pKd is 4.80.

With PCNA (from UniProt P12004) as the substance, how does the pKd (RecQ5 (Homo sapiens)) read?
Its pKd is 3.68.

And the pKd (pol η (Homo sapiens))?
Its pKd is 6.40.

And the pKd (pol ι (Homo sapiens))?
Its pKd is 6.41.

And the pKd (p68 (Homo sapiens))?
Its pKd is 4.80.

What about the pKd (PARG (Homo sapiens)) of the same substance?
Its pKd is 5.48.

And the pKd (UHRF2 (Homo sapiens))?
Its pKd is 4.59.

What about the pKd (DVC1 (Homo sapiens)) of the same substance?
The pKd was 4.81.

And the pKd (p21 (Homo sapiens))?
The pKd was 7.10.

What about the pKd (ZRANB3 (Homo sapiens) [1]) of the same substance?
Its pKd is 5.32.

And the pKd (p15PAF (Homo sapiens))?
The pKd was 5.25.

And the pKd (TRAIP (Homo sapiens))?
Its pKd is 4.51.

What about the pKd (DNMT1 (Homo sapiens)) of the same substance?
The pKd was 6.00.

And the pKd [2]?
The pKd was 5.96.

What about the pKd (FEN1 (Homo sapiens)) of the same substance?
Its pKd is 4.22.

What about the pKd (p12 (Homo sapiens)) of the same substance?
The pKd was 4.42.

What about the pKd (ZRANB3 (Homo sapiens) [3]) of the same substance?
Its pKd is 5.03.

And the pKd (Cdt2 (Homo sapiens))?
Its pKd is 7.24.

What about the pKd (Cdt1 (Homo sapiens)) of the same substance?
Its pKd is 5.14.

With p21 as the substance, how does the pKd (PCNA (Homo sapiens)) read?
The pKd was 7.10.

With p15PAF (from UniProt Q15004) as the substance, how does the pKd (PCNA (Homo sapiens)) read?
The pKd was 5.96.

With ZRANB3 as the substance, how does the pKd (PCNA (Homo sapiens)) read?
Its pKd is 5.32.

With FEN1 as the substance, how does the pKd (PCNA (Homo sapiens)) read?
The pKd was 4.22.
